This is an account of results in publication doi:10.1101/2021.03.07.432812.

Assay [1] has as its target Y177A, W151A, and F141A. Nature of the assay: ITC. (ITC needs no label: the signal is the heat of the interaction.)
For assay [2], the target named is Spindlin1_(50-262) bound to DOCpep(1-3) (UniProt Q9Y657). Nature of the assay: ITC.

The substance “DOCpep2, SPIN•DOC 228-239 peptide (from UniProt Q9BUA3 228-239)” displayed a fold reduction of binding against wild-type Spindlin1 in assay [1] of 1.5 to 3 fold. With “histone H3 1-20 K4me3 peptide (from UniProt P68431 2-21)”, the fold decrease of binding affinity in the presence of DOCpep(1-3) in assay [2] was 18 fold.
